Target: T1, E(Edans)-AAHisAAK-(Dabsyl)-NH2 (not fully specified)
T1 chain: AAHAAK

B1: aspergillopepsin II (An01g00530) (protein)
chain: EDYSSNWAGAVLIGDGYTKVTGEFTVPSVSAGSSSSSGYGGGYGYYKNKRQSEEYCASAWVGIDGDTCETAILQTGVDFCYEDGQTSYDAWYEWYPDYAYDFNDITISEGDTIKVTVEATSKSSGSATVENLTTGQSVTHTFSGNVEGDLCETNAEWIVEDFESGDSLVAFADFGSVTFTNAEATSDGSTVGPSDATVMDIEQDGTVLTETSVSGDSVTVTYV
enzyme activity in relative fluorescent units (rfu) per minute per mg of protein; cleavage of FRET peptide substrates at pH 4: yields the highest rfu value for aspergillopepsin II

Source: US20150239954
